System: alveolar macrophages of naive rat
Assay: Nitric oxide production by alveolar macrophages stimulated with recombinant protein
Type: cell-based
Details: for NO activation in the presence of polymyxin B: plus polymyxin B (LPS activity-induced inhibitor)
Excerpt: FIG. 2. Measurement of Nitric Oxide (NO) concentration in the supernatant of macrophages culture stimulated with lipopolysaccharide (LPS); lipopolysaccharide+polymyxin B (LPS+PolB); purified PFR-1 protein (PFR-1); purified PFR-1 protein+polymyxin B (PFR1+PolB); L-NG-monomethyl arginine citrate (LNMMA); purified PFR-1 protein+L-NG-monomethyl arginine citrate (PFR1+LNMMA). Concentration is expressed in μmol/liter.
PFR1 protein of Leishmania infantum is encompassed within the family of characteristic proteins of paraflagellar rod proteins from kinetoplastids. In FIG. 1, we show the PFR1 recombinant protein of L. infantum expressed in a prokaryotic expression system and purified by affinity chromatography. […] This activation of nitric oxide production confers to the aforementioned protein a relevant immunological feature because NO favors the clearance of the amastigotes of Leishmania that multiply within the host macrophages. In FIG. 2, the values of NO production by these alveolar macrophages are collected by stimulating them with LPS (control) and the PFR1 protein.

Molecule: lipopolysaccharide [LPS, reference compound]
- NO activation in the presence of polymyxin B: inhibited by the presence of polymyxin B

B1: PFR1 protein: PFR1 recombinant protein of L. infantum expressed in a prokaryotic expression system and purified by affinity chromatography (protein, listed as Leishmania infantum)
chain: MMTPEDATGLEAARKQKIHNLKLKTACLENEELVQELHISDWSETQRQKLRGAHEKGEELLASVEVGTKWNLMEAYDLAKLMRVCGLEMSQRELYRPEDKPQFMDIIGVKKVLQDLRQNRNKTRVVSFTQLIDNSIAKMEKVEEELRRSQLDATQLAQVPTRTVKMMEDIMNATQIQNALASTDDQMQTQLAQLEKTNEIQNVAMHDGETQVAEEQMWTKVQLQERLIELLKDKFGLIGKCEEENAQFKEIYEVQKQANQETSQMKDAKRRLRQRCETDLKHIQDAIQKADLEDAEAVKRYPRNKERSERAIKENEEMQEEAWNKIQDLERQLQNLGTDRFDEVKRRIEEVDREEKRRVENAQFLEIAAQHKKLLELTVYNCDLAMRCTGLVEELVSEGCAGVKARYDKTNQDLAALRLEVHKEHLEYFRMLYLTLGSLIYKKEKRLEEIDRNIRLAHIQLEFCVETFDPNAKKHADMKKELYRLRQGVEEELAMLKEKQAAALDDFKESEEALDAAGIEFSHPVDENNEEVLTRRSKMVEYKSHLTKEEEVRIAAEREEIKRARLLRSGGESAAAQITSGSMNADYAASAQLEL
modifications: /mol_type=”protein“ /organism=”Leishmania infantum“; REGION 1..595 ”PFR1 protein aminoacids“; REGION 160..595 ”SEQ ID No 9“; REGION 160..548 ”SEQ ID No 10“; REGION 160..385 ”SEQ ID No 11“; PEPTIDE 103..113 ”SEQ ID No 1“; PEPTIDE 150..159 ”SEQ ID No 2“; PEPTIDE 165..173 ”SEQ ID No 4“; PEPTIDE 204..212 ”SEQ ID No 5“; PEPTIDE 222..230 ”SEQ ID No 6“; PEPTIDE 373..382 ”SEQ ID No 3“
- production of nitric oxide (NO) by alveolar macrophages (naive rat alveolar macrophages stimulated with the protein): ability to activate the production of nitric oxide (NO)
- NO activation in the presence of LNMMA (plus L-NG-monomethyl arginine, nitric oxide synthase inhibitor): inhibits the NO activation induced by the PFR1 protein
- NO activation in the presence of polymyxin B: unlike the one detected for PFR1 protein, the activation observed for LPS is inhibited by the presence of polymyxin B
